*1 amine or outer side, *2 acyl side, *3 side chain or, on linkers, in order; H or OH if unused. Where no end group is shown, it is not given here. [ ]: non-standard residue; d: D form. ReO = oxorhenium(V), one metal core binding both hemi-chelators, from trichlorooxobis(triphenylphosphine)rhenium(V); GlyN6 = Gly building unit carrying an omega-amine (Cys attached there); N(6-aminohexyl)Gly = O=C(CN(CCCCCCN[*:3])[*:1])[*:2]
Experiments:
SST-R2 and SST-R5 = settings: activity described in WO 99/65508; cited from earlier work
human cloned SST-R2 = target: T1, human cloned SST-R2 (human, UniProt P30874 1-369); assay: inhibition of 125I-Tyr11-SRIF-14 binding to membranes of CHO cells expressing cloned human SST-R2
T1 construct: whole, on cells; Assayed as membrane preparations of CHO cells expressing the cloned receptor, not as intact cells; also called hSST-R2; human SST-R2
Description: The SST analogs were tested for their potency in inhibition of the binding of ¹²⁵I-Tyr¹¹-SRIF (based on the method described by Raynor et. al., Molecular Pharmnacology 43: 838, 1993) to membrane preparations expressing the transmembranal SST receptors (SST-R1, 2, 3, 4 or 5). The receptor preparations used for these tests were either from the cloned human receptors selectively and stably expressed in Chinese Hamster Ovary (CHO) cells or from cell lines naturally expressing the SST-R5. Typically, cell membranes were homogenized in Tris buffer in the presence of protease inhibitors and incubated for 30-40 minutes with ¹²⁵I-Tyr¹¹-SRIF with different concentrations of the tested sample. The binding reactions were filtered, the filters were washed and the bound radioactivity was counted in β counter after addition of scintillation colution. Non specific binding was defined as the radioactivity remaining bound in the presence of 1 μM unlabeled SRIF-14.

T1 sequence (P30874 whole entry): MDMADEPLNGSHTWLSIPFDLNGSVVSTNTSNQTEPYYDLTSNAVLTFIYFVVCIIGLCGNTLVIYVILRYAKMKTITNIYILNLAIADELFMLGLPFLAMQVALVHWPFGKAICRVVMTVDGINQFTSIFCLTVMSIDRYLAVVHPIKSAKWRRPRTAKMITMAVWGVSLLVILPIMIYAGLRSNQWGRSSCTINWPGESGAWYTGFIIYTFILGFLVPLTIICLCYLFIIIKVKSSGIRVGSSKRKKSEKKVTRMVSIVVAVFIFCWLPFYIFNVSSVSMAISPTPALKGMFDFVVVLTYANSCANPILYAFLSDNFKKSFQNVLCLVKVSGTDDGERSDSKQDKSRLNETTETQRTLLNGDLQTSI

Molecule: *GABA-Phe-Trp-DTrp-Lys-Thr-Phe-GlyC3*-NH2 [PTR 3173]
- receptor selectivity (SST-R2 and SST-R5): selective for SST-R2 and SST-R5

B1: ReO-GF-12 (peptide)
peptide: CGFWWKTFG
modifications: not fully specified; D-Cys at 1; D-Trp at 5; GlyN6 building unit at 9 with D-Cys on its omega-amine; C-terminal amide; ReO (oxorhenium(V)) chelated by the two Cys closes the ring
- IC50 (human cloned SST-R2): 9 nM

B2: ReO-GF-16 (peptide)
peptide: CFWWKTFG
modifications: not fully specified; D-Cys at 1; D-Trp at 4; GlyN6 building unit at 8 with D-Cys on its omega-amine; C-terminal amide; ReO (oxorhenium(V)) chelated by the two Cys closes the ring
- IC50 (human cloned SST-R2): 18 nM

B3: ReO-GF-20 (peptide)
peptide: CXFWWKTFG
modifications: not fully specified; D-Cys at 1; GABA at 2 (written X); D-Trp at 5; GlyN3 building unit at 9 with D-Cys on its omega-amine; C-terminal amide; ReO (oxorhenium(V)) chelated by the two Cys closes the ring
- IC50 (human cloned SST-R2): 10 nM

B4: ReO-GF-24 (peptide)
peptide: CXFWWKTFG
modifications: not fully specified; D-Cys at 1; beta-Ala at 2 (written X); D-Trp at 5; GlyN3 building unit at 9 with D-Cys on its omega-amine; C-terminal amide; ReO (oxorhenium(V)) chelated by the two Cys closes the ring
- IC50 (human cloned SST-R2): 23 nM

B5: ReO-GF-28 (peptide)
peptide: CGFWWKTFG
modifications: not fully specified; D-Cys at 1; D-Trp at 5; GlyN3 building unit at 9 with D-Cys on its omega-amine; C-terminal amide; ReO (oxorhenium(V)) chelated by the two Cys closes the ring
- IC50 (human cloned SST-R2): > 10 nM

B6: ReO-GF-32 (peptide)
peptide: CFWWKTFG
modifications: not fully specified; D-Cys at 1; D-Trp at 4; GlyN3 building unit at 8 with D-Cys on its omega-amine; C-terminal amide; ReO (oxorhenium(V)) chelated by the two Cys closes the ring
- IC50 (human cloned SST-R2): 14 nM

B7: ReO-GF-36 (peptide)
peptide: CXFWWKTFG
modifications: not fully specified; D-Cys at 1; GABA at 2 (written X); D-Trp at 5; GlyN2 building unit at 9 with D-Cys on its omega-amine; C-terminal amide; ReO (oxorhenium(V)) chelated by the two Cys closes the ring
- IC50 (human cloned SST-R2): > 10 nM

B8: ReO-GF-40 (peptide)
peptide: CXFWWKTFG
modifications: not fully specified; D-Cys at 1; beta-Ala at 2 (written X); D-Trp at 5; GlyN2 building unit at 9 with D-Cys on its omega-amine; C-terminal amide; ReO (oxorhenium(V)) chelated by the two Cys closes the ring
- IC50 (human cloned SST-R2): > 10 nM

B9: ReO-GF-44 (peptide)
peptide: CGFWWKTFG
modifications: not fully specified; D-Cys at 1; D-Trp at 5; GlyN2 building unit at 9 with D-Cys on its omega-amine; C-terminal amide; ReO (oxorhenium(V)) chelated by the two Cys closes the ring
- IC50 (human cloned SST-R2): > 10 nM

B10: ReO-GF-48 (peptide)
peptide: CFWWKTFG
modifications: not fully specified; D-Cys at 1; D-Trp at 4; GlyN2 building unit at 8 with D-Cys on its omega-amine; C-terminal amide; ReO (oxorhenium(V)) chelated by the two Cys closes the ring
- IC50 (human cloned SST-R2): > 10 nM

B11: ReO-GF-4 (peptide)
peptide: CXFWWKTFG
modifications: not fully specified; D-Cys at 1; GABA at 2 (written X); D-Trp at 5; GlyN6 building unit at 9 with D-Cys on its omega-amine; C-terminal amide; ReO (oxorhenium(V)) chelated by the two Cys closes the ring
- IC50 (human cloned SST-R2): 12 nM

B12: ReO-GF-8 (peptide)
peptide: CXFWWKTFG
modifications: not fully specified; D-Cys at 1; beta-Ala at 2 (written X); D-Trp at 5; GlyN6 building unit at 9 with D-Cys on its omega-amine; C-terminal amide; ReO (oxorhenium(V)) chelated by the two Cys closes the ring
- IC50 (human cloned SST-R2): 5 nM

B13: ReO-GF-9 (peptide)
peptide: CGFW[dW]KTF[N(6-aminohexyl)Gly](Cys)-NH2
modifications: bridge (positions not given here); not fully specified (bridges); also: N2S2 oxorhenium(V) chelate via the two Cys
- IC50 (human cloned SST-R2): ~10 nM

B14: ReO-GF-10 (peptide)
peptide: CGFWWKTFG
modifications: not fully specified; L-Cys at 1; D-Trp at 5; GlyN6 building unit at 9 with D-Cys on its omega-amine; C-terminal amide; ReO (oxorhenium(V)) chelated by the two Cys closes the ring
notes: also called ReO-LCys*-Gly-Phe-Trp-DTrp-Lys-Thr-Phe-GlyN6(DCys*)-NH2
- IC50 (human cloned SST-R2): 3 nM

B15: ReO-GF-11 (peptide)
peptide: CGFWWKTFG
modifications: not fully specified; D-Cys at 1; D-Trp at 5; GlyN6 building unit at 9 with L-Cys on its omega-amine; C-terminal amide; ReO (oxorhenium(V)) chelated by the two Cys closes the ring
notes: also called ReO-DCys*-Gly-Phe-Trp-DTrp-Lys-Thr-Phe-GlyN6(LCys*)-NH2
- IC50 (human cloned SST-R2): 4 nM

B16: ReO-GF-13 (peptide)
peptide: CFW[dW]KTF[GlyN6](Cys)-NH2
modifications: bridge (positions not given here) via ReO; not fully specified (bridges); also: oxorhenium(V) metal chelate (N2S2)
- IC50 (human cloned SST-R2): ~10 nM

B17: ReO-GF-14 (peptide)
peptide: CFWWKTFG
modifications: not fully specified; L-Cys at 1; D-Trp at 4; GlyN6 building unit at 8 with D-Cys on its omega-amine; C-terminal amide; ReO (oxorhenium(V)) chelated by the two Cys closes the ring
notes: also called ReO-LCys*-Phe-Trp-DTrp-Lys-Thr-Phe-GlyN6(DCys*)-NH2
- IC50 (human cloned SST-R2): 7 nM

B18: ReO-GF-15 (peptide)
peptide: CFWWKTFG
modifications: not fully specified; D-Cys at 1; D-Trp at 4; GlyN6 building unit at 8 with L-Cys on its omega-amine; C-terminal amide; ReO (oxorhenium(V)) chelated by the two Cys closes the ring
- IC50 (human cloned SST-R2): > 10 nM

B19: ReO-GF-17 (peptide)
peptide: CXFWWKTFG
modifications: L-Cys at 1; GABA at 2 (written X); D-Trp at 5; GlyN3 building unit at 9 with L-Cys on its omega-amine; C-terminal amide; ReO (oxorhenium(V)) chelated by the two Cys closes the ring
- IC50 (human cloned SST-R2): 24 nM

B20: ReO-GF-18 (peptide)
peptide: CXFWWKTFG
modifications: L-Cys at 1; GABA at 2 (written X); D-Trp at 5; GlyN3 building unit at 9 with D-Cys on its omega-amine; C-terminal amide; ReO (oxorhenium(V)) chelated by the two Cys closes the ring
- IC50 (human cloned SST-R2): ~10 nM

B21: ReO-GF-1 (peptide)
peptide: CXFWWKTFG
modifications: L-Cys at 1; GABA at 2 (written X); D-Trp at 5; GlyN6 building unit at 9 with L-Cys on its omega-amine; C-terminal amide; ReO (oxorhenium(V)) chelated by the two Cys closes the ring
- IC50 (human cloned SST-R2): 16 nM

B22: ReO-GF-19 (peptide)
peptide: CXFWWKTFG
modifications: D-Cys at 1; GABA at 2 (written X); D-Trp at 5; GlyN3 building unit at 9 with L-Cys on its omega-amine; C-terminal amide; ReO (oxorhenium(V)) chelated by the two Cys closes the ring
- IC50 (human cloned SST-R2): > 10 nM

B23: ReO-GF-21 (peptide)
peptide: CXFWWKTFG
modifications: L-Cys at 1; beta-Ala at 2 (written X); D-Trp at 5; GlyN3 building unit at 9 with L-Cys on its omega-amine; C-terminal amide; ReO (oxorhenium(V)) chelated by the two Cys closes the ring
notes: also called ReO-LCys*-βAla-Phe-Trp-DTrp-Lys-Thr-Phe-GlyN3(LCys*)-NH2
- IC50 (human cloned SST-R2): 1 nM
